Paper doi:10.1101/2021.03.26.437179 (bioRxiv, 2021)

Legend:
Assay in all cases: pull-down
GST-PUB26 = biological target: T1, GST-PUB26 (Arabidopsis thaliana, UniProt Q9FXA4 1-421)
T1 sequence (looked up): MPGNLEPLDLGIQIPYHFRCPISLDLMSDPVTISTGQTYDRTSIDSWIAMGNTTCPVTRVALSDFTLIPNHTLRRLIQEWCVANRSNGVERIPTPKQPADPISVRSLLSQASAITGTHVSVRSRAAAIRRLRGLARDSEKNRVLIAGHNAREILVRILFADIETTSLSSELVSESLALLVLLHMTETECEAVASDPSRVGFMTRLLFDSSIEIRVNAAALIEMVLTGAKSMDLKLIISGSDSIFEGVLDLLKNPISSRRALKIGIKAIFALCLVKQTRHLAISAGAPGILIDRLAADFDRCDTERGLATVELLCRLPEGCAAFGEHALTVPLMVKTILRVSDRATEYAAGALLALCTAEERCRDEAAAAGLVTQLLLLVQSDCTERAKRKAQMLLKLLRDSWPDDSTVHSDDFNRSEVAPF

GST-PUB25 = biological target: T2, GST-PUB25 (Arabidopsis thaliana, UniProt Q9LT79 1-421)
T2 sequence (looked up): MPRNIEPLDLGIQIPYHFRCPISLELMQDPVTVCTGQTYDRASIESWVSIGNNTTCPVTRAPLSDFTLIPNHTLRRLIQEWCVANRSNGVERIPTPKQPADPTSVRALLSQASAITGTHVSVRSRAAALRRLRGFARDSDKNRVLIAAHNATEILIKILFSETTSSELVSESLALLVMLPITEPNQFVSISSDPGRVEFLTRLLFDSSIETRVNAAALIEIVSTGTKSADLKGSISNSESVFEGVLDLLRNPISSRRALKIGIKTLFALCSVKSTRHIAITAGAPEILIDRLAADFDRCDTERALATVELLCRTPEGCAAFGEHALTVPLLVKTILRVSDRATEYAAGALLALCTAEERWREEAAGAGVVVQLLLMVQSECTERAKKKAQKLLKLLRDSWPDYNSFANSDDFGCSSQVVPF

HIS-PUB26 = biological target: T3, HIS-PUB26 (Arabidopsis thaliana, UniProt Q9FXA4 1-421)
T3 sequence (looked up): T1 sequence (looked up)

Measured: binding result

B1: MBP-MYB6 (natural protein, Arabidopsis thaliana, UniProt Q38851 1-236, looked up)
chain: MGRSPCCEKAHTNKGAWTKEEDQRLVDYIRNHGEGCWRSLPKSAGLLRCGKSCRLRWINYLRPDLKRGNFTDDEDQIIIKLHSLLGNKWSLIAGRLPGRTDNEIKNYWNTHIKRKLLSHGIDPQTHRQINESKTVSSQVVVPIQNDAVEYSFSNLAVKPKTENSSDNGASTSGTTTDEDLRQNGECYYSDNSGHIKLNLDLTLGFGSWSGRIVGVGSSADSKPWCDPVMEARLSLL
binds: all assays above
